Assay results taken from patent US20250122292A1 (DOMA BIOPHARMACEUTICAL SUZHOU, published 2025).

How the values were obtained:
Assay in all cases: SPR (Biacore 8K, Protein A chip; His-tagged antigen as analyte; 1:1 Langmuir fit)
[1] = biological target: fasEGFR-His (ACROBiosystems Inc., Cat #: EGR-C52H5) (monkey)
Description: (§1) Dissociation was monitored for 400 seconds.

[2] = biological target: T1, hMET-His (ACROBiosystems Inc., Cat #: MET-H5227) (human, UniProt P08581 25-932)
T1 construct: Bought reagent; also called human MET; not shown: His tag
Description: as §1

[3] = biological target: T2, hEGFR-His (ACROBiosystems Inc., Cat #: EGR-H5222) (human, UniProt P00533 25-645)
T2 construct: Bought reagent; also called human EGFR; not shown: His tag
Description: as §1

T1 sequence (P08581 25-932 limits assumed): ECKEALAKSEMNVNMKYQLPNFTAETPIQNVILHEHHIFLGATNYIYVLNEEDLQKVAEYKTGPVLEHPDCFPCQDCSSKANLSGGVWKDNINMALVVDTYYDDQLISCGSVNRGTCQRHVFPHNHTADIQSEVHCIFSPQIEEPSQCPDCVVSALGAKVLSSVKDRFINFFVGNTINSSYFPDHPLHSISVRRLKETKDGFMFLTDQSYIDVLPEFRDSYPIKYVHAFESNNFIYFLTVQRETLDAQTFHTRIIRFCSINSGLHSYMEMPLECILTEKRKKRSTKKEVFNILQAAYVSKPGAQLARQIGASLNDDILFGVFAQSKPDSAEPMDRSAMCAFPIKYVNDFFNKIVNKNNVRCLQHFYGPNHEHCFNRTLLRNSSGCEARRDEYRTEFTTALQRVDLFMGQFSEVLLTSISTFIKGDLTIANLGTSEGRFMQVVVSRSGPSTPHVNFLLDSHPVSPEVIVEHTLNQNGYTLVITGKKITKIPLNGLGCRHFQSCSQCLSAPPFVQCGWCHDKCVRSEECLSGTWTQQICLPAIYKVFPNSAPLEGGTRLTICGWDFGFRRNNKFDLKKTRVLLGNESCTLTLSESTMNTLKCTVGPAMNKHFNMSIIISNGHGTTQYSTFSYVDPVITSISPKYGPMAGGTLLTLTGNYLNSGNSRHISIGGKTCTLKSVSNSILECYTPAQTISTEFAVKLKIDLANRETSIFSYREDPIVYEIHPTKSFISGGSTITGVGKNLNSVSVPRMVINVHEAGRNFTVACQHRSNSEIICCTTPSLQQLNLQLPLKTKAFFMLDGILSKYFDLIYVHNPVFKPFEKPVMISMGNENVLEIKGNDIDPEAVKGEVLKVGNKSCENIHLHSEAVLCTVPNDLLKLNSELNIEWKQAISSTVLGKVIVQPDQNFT

Row | Binder | Kd [1] [nM] | Kd [2] [nM] | koff [2] [s⁻¹] | kon [2] [M⁻¹ s⁻¹] | Kd [3] [nM] | koff [3] [s⁻¹] | kon [3] [M⁻¹ s⁻¹] | koff [1] [s⁻¹] | kon [1] [M⁻¹ s⁻¹]
1 | E-6C4 (antibody, V domains shown, Anti-EGFR human monoclonal antibody from RenLite mice with the common light chain) VH: QVQLQQWGPGLVKPSQTLSLTCTVSGGSINSGDYYWSWIRQPPGKGLESIGYIYYSGSTYYNPSLKSRVTISADTSKNQFSLKLTSVTAADTAVYYCARERVYSSSLDYWGQGTLVTVSS VL: not shown | 158 |  |  |  |  |  |  |  | 
2 | E-6C4-M-2F11 (bispecific antibody, human IgG1, kappa, 1+1 knobs-into-holes bispecific with common light chain; also called anti-EGFR/MET bispecific antibody E-6C4-M-2F11) heavy 1: not shown heavy 2: EVQLVESGPGLVKPSETLSLTCTVSGGSISSNYWSWIRQPPGKGLEWIGYIYHSGSTNYNPSLKSRVTISVDTSKNQFSLKLSSVTAADTAVYFCARGPVSIFGVVKYIDLWGRGTLVTVSSASTKGPSVFPLAPSSKSTSGGTAALGCLVKDYFPEPVTVSWNSGALTSGVHTFPAVLQSSGLYSLSSVVTVPSSSLGTQTYICNVNHKPSNTKVDKKVEPKSCDKTHTCPPCPAPELLGGPSVFLFPPKPKDTLMISRTPEVTCVVVDVSHEDPEVKFNWYVDGVEVHNAKTKPREEQYNSTYRVVSVLTVLHQDWLNGKEYKCKVSNKALPAPIEKTISKAKGQPREPQVCTLPPSREEMTKNQVSLSCAVKGFYPSDIAVEWESNGQPENNYKTTPPVLDSDGSFFLVSKLTVDKSRWQQGNVFSCSVMHEALHNHYTQKSLSLSPGK light: not shown | 115 | 50.5 | 0.00187 | 37000 | 70.7 | 0.0215 | 304000 | 0.0198 | 172000
